{
  "source": "patent US7105156",
  "about": "(University of California, dated 2006)",
  "target": "T1, p56^RB protein (amino-truncated 56 kDa RB protein, C-terminal half of the RB protein) (Homo sapiens (Human), UniProt P06400 379-928)",
  "T1 sequence": "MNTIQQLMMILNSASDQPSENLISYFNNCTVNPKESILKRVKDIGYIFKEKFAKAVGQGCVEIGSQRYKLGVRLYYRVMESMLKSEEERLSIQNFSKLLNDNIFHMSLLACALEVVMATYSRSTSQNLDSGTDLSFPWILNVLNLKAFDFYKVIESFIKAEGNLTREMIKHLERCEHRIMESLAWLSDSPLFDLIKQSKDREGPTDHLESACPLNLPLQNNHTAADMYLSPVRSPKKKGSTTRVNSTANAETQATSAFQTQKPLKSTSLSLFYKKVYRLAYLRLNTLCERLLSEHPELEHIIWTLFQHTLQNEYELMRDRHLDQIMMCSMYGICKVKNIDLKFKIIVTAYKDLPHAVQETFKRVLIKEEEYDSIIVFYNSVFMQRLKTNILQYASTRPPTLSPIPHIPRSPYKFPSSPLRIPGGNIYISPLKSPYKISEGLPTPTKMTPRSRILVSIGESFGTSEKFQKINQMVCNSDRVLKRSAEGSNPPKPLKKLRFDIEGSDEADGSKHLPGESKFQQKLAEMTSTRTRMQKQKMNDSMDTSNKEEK",
  "assay": "cell-based or functional assay",
  "data": [
    {"binder": "ENLFCSEEMPSSDDEATA", "note": "[T peptide (SV40 T-antigen peptide, amino acids 101-118)]", "values": [
      {"measurement": "percent of injected cells incorporating BrdU (Saos-2 cells, 5 mM T peptide, 500 to 1000-fold molar excess over p56^RB)", "value": "~70", "unit": "%"}
    ]}
  ]
}
